Test results from patent US20150197564A1 (Regeneron, published 2015).
Positions count from the first letter of the chain named.

T1: hANGPTL3(17-460)-His (human, UniProt Q9Y5C1 17-460)
T1 construct: Bought protein (R&D Systems); also called full-length mature human ANGPTL3 with a C-terminal decahistidine tag; Human ANGPTL3 (17-460)-His
T1 sequence: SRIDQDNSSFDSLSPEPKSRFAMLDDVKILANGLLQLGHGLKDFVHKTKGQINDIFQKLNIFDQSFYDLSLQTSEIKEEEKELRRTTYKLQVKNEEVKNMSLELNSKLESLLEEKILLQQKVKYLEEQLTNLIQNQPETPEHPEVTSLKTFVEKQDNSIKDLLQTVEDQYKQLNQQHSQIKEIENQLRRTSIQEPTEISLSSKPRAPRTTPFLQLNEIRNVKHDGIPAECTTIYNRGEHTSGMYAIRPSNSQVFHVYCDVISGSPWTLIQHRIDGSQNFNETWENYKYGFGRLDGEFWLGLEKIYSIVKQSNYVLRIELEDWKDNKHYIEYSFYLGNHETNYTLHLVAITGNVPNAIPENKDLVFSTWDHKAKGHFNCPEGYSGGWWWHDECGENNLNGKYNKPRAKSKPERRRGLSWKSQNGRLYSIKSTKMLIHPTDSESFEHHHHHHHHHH

T2: bovine LPL (bovine, UniProt P11151 29-478, limits assumed)
T2 sequence (looked up): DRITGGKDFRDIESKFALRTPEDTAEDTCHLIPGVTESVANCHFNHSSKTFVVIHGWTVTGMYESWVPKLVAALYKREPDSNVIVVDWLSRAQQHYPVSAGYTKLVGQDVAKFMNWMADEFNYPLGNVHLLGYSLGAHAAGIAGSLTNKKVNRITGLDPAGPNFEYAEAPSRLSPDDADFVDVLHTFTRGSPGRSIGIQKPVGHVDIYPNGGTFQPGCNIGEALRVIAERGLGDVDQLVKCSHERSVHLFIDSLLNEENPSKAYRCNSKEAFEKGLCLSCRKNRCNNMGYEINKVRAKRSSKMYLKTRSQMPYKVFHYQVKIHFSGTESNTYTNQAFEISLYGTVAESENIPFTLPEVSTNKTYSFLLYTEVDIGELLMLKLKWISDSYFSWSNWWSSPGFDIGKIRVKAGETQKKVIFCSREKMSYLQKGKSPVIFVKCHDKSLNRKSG

T3: mANGPTL3(17-455)-His (Mus musculus, UniProt Q9R182 17-455)
T3 construct: Bought protein (R&D Systems); also called full-length mature ANGPTL3 from Mus musculus with a C-terminal decahistidine tag
T3 sequence: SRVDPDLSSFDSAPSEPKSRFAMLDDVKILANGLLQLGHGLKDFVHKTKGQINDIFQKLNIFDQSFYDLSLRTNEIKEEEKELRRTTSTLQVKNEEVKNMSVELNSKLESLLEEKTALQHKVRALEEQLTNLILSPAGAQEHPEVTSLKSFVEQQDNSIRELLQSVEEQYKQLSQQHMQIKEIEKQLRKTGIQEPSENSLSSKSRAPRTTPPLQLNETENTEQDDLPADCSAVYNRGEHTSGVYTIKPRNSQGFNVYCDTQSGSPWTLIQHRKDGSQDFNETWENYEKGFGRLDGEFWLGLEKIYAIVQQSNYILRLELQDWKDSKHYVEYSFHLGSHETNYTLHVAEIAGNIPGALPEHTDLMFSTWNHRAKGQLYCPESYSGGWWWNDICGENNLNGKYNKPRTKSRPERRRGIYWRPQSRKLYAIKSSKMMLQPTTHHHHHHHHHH

B1: H4H1250P (antibody, IgG4, V domains shown)
VH: QVQLVESGGGVVQPGRSLRLSCAASGFTFSSYGMHWVRQAPGKGLEWVAVISNDGSNKYYVDSVKGRFTMGRDNSKNTLYLQMNSLRVEDTAVYYCAKGAGTLYYYYYGMDVWGQGTTVTVSS
VL: DIQMTQSPSTLSASVGNRVTITCRASQSISSWLAWYQQKPGKAPKFLIYKASSLESGVPSRFSGSGSGTEFTLTITSLQPDDFATYYCQQYNIYSWTFGQGTKVEIK
B2: H4H1279P (antibody, IgG4, V domains shown)
VH: QVQLVESGGGLVKPGGSLRLSCAASGFTFSDYYMSWIRQAPGKGLEWVSYIGSSGVNMYYADSVKGRFTISRDNAKNSLYLEMNSLRAEDTAVYYCARDSSQLGFDYWGQGTLVTVSS
VL: DIQMTQSPSSLSASVGDRVTITCRTSQNIINFLNWYQQKPGKAPKLLIYTTSTLQSGVPSRFSGSGSGTDFTLSINSLQPEDFATYFCQQTYSNPLTFGGGTKLEIKR
B3: H4H1292P (antibody, IgG4, V domains shown)
VH: B2 VH with G52S, V56S, N57T, M58I, E82Q
VL: B2 VL with T25A, N28S, N31S, T51A, T53S, S74T, N76S, F87Y, L104V
B4: H1M896N (antibody, V domains shown)
VH: EVQLLESGGGLVQPGGSLRLSCAASGFTFSTYAMSWVRQAPGKGLEGVSGISGTGYRTYYADSVKGRFTISRDNSKNSLYLQMNSLRAEDTAVYYCAKDRGLLWFGELTYWGQGTLVTVSS
VL: DIQMTQSPSTLSASVGDRVTITCRASQSINNWLAWYQQKPGKAPNLLIYKASSLESGVPSRFSGSGSGTEFTLTISSLQPDDFATYYCQQYNDYWTFGQGTKVEIK
B5: hANGPTL3(17-169)-mFc (Fc fusion)
chain: SRIDQDNSSFDSLSPEPKSRFAMLDDVKILANGLLQLGHGLKDFVHKTKGQINDIFQKLNIFDQSFYDLSLQTSEIKEEEKELRRTTYKLQVKNEEVKNMSLELNSKLESLLEEKILLQQKVKYLEEQLTNLIQNQPETPEHPEVTSLKTFVEEPRGPTIKPCPPCKCPAPNLLGGPSVFIFPPKIKDVLMISLSPIVTCVVVDVSEDDPDVQISWFVNNVEVHTAQTQTHREDYNSTLRVVSALPIQHQDWMSGKEFKCKVNNKDLPAPIERTISKPKGSVRAPQVYVLPPPEEEMTKKQVTLTCMVTDFMPEDIYVEWTNNGKTELNYKNTEPVLDSDGSYFMYSKLRVEKKNWVERNSYSCSVVHEGLHNHHTTKSFSRTPGK
B6: mANGPTL3(17-240)-His (other)
chain: GAPSRVDPDLSSFDSAPSEPKSRFAMLDDVKILANGLLQLGHGLKDFVHKTKGQINDIFQKLNIFDQSFYDLSLRTNEIKEEEKELRRTTSTLQVKNEEVKNMSVELNSKLESLLEEKTALQHKVRALEEQLTNLILSPAGAQEHPEVTSLKSFVEQQDNSIRELLQSVEEQYKQLSQQHMQIKEIEKQLRKTGIQEPSENSLSSKSRAPRTTPPLQLNETENTEQDASHHHHHH

These binders were tested against T1, hANGPTL3(17-460)-His (assay: SPR Biacore, antigen captured, 25C, pH 7.4, HBS-EP).
Protocol: (§1) All kinetic binding experiments were performed at 25° C. or 37° C. on a BIACORE™ T200 label-free molecular interaction instrument (GE Healthcare) using a CM5 sensor chip. Briefly, an antigen capture surface was generated by covalently coupling either an anti-mouse IgG-specific antibody (anti-mFc; GE Healthcare; catalog #BR-1008-38) or an anti-pentahistidine-specific antibody (Qiagen; catalog #34660) to the surface of a CM5 sensor chip using a standard amine coupling method.
With B1 the Kd was 0.726 nM, the koff was 0.000657 s⁻¹ and the kon was 904000 M⁻¹ s⁻¹. The t1/2 was 18 min. Work on B2 yielded a Kd of 0.394 nM, a koff of 0.000114 s⁻¹ and a kon of 288000 M⁻¹ s⁻¹. For the same binder, the t1/2 was 102 min. In the case of B3, the Kd is reported as 0.727 nM, the koff is reported as 0.000248 s⁻¹ and the kon is reported as 341000 M⁻¹ s⁻¹. It also gave a t1/2 of 47 min.

Biological target: B5
Assay: SPR Biacore, antigen captured, 25C, pH 7.4, HBS-EP
Protocol: as §1
In the case of B1, the Kd is reported as 0.519 nM, the koff is reported as 0.000651 s⁻¹ and the kon is reported as 1.25e+06 M⁻¹ s⁻¹. The t1/2 was 0.3 h. B2 showed a Kd of 0.00841 nM, a koff of 5.53e-06 s⁻¹ and a kon of 658000 M⁻¹ s⁻¹. For the same binder, the t1/2 was 34.8 h. Binder B3 has a Kd of 0.257 nM, a koff of 0.000177 s⁻¹ and a kon of 686000 M⁻¹ s⁻¹. It also gave a t1/2 of 1.08 h.

These binders were tested against T1, hANGPTL3(17-460)-His (assay: Biacore cross-competition; second antibody after pre-loading with Negative Control).
Protocol: (§2) Cross competition experiments were performed at 25° C. on a Biacore essentially as described in Example 3 above. […] The results are shown in Table 8 with binding response for the first antibody (mAb1), followed by binding response of the second antibody (mAb2) on the ANGPTL3 surface pre-loaded with the first antibody. Numbers in bold indicate that the antibody pairs are able to bind to hANGPTL3 simultaneously. Numbers in italics indicate that that the antibody pairs are able to bind to hANGPTL3 simultaneously when added sequentially in one direction but not the other. Brackets indicate self-self competition.
In the case of B1, the “mAb2 binding response (RU)” value is reported as 187 RU. For B4, the “mAb2 binding response (RU)” value was 149 RU. In the case of B2, the “mAb2 binding response (RU)” value is reported as 47 RU. In the case of B3, the “mAb2 binding response (RU)” value is reported as 48 RU.

The binders below were run against T1, hANGPTL3(17-460)-His (assay: Biacore cross-competition; second antibody after pre-loading with competitor H4H1250P).
Protocol: as §2
With B4 the “mAb2 binding response (RU)” value was -4 RU. For B2, the “mAb2 binding response (RU)” value was 9 RU. In the case of B3, the “mAb2 binding response (RU)” value is reported as 8 RU.

These binders were tested against T2, bovine LPL (assay: cell-based or functional assay).
In the case of B5, the “EC50 (nM), inhibition of LPL activity” value is reported as 16 nM. In the case of B6, the “EC50 (nM), inhibition of LPL activity” value is reported as 199 nM.

Each binder was assayed against T1, hANGPTL3(17-460)-His (assay: Biacore cross-competition; second antibody after pre-loading with competitor H4H1279P).
Protocol: as §2
With B1 the “mAb2 binding response (RU)” value was 213 RU. B4 was tested, and the “mAb2 binding response (RU)” value was 186 RU. For B3, the “mAb2 binding response (RU)” value was -1 RU.

Biological target: T2, bovine LPL
Assay: cell-based or functional assay
Remark: another data set of the same source
B5 was tested, and the “IC50 for blocking LPL” value was 47 nM. In the case of B6, the “IC50 for blocking LPL” value is reported as 341 nM.

These binders were tested against T1, hANGPTL3(17-460)-His (assay: Biacore cross-competition, 25C; first antibody at 25 µg/ml on captured antigen).
Protocol: as §2
B1 was tested, and the “mAb1 binding response (RU)” value was 210 RU. In the case of B4, the “mAb1 binding response (RU)” value is reported as 171 RU. For B2, the “mAb1 binding response (RU)” value was 45 RU. With B3 the “mAb1 binding response (RU)” value was 48 RU.

These binders were tested against T1, hANGPTL3(17-460)-His (assay: SPR Biacore, antigen captured, 37C, pH 7.4, HBS-EP).
Protocol: as §1
Work on B1 yielded a Kd of 0.324 nM, a koff of 0.00113 s⁻¹ and a kon of 3.5e+06 M⁻¹ s⁻¹. It also gave a t1/2 of 10 min. For B4, the Kd was 0.158 nM, the koff was 0.00053 s⁻¹ and the kon was 3.36e+06 M⁻¹ s⁻¹. The t1/2 was 22 min. For B2, the Kd was 0.381 nM, the koff was 0.00181 s⁻¹ and the kon was 4.74e+06 M⁻¹ s⁻¹. For the same binder, the t1/2 was 6 min. B3 showed a Kd of 1.02 nM, a koff of 0.00194 s⁻¹ and a kon of 1.89e+06 M⁻¹ s⁻¹. For the same binder, the t1/2 was 6 min.

The binders below were run against T3, mANGPTL3(17-455)-His (assay: SPR Biacore, antigen captured, 37C, pH 7.4, HBS-EP).
Protocol: as §1
B1 showed a Kd of 0.486 nM, a koff of 0.00155 s⁻¹ and a kon of 3.18e+06 M⁻¹ s⁻¹. For the same binder, the t1/2 was 7 min. B4 showed a Kd of 0.682 nM, a koff of 0.00247 s⁻¹ and a kon of 3.62e+06 M⁻¹ s⁻¹. It also gave a t1/2 of 5 min. Work on B2 yielded a Kd of 0.167 nM, a koff of 0.000359 s⁻¹ and a kon of 2.15e+06 M⁻¹ s⁻¹. It also gave a t1/2 of 32 min. B3 was tested, and the Kd was 0.38 nM, the koff was 0.00149 s⁻¹ and the kon was 3.92e+06 M⁻¹ s⁻¹. It also gave a t1/2 of 8 min.

Each binder was assayed against T1, hANGPTL3(17-460)-His (assay: Biacore cross-competition; second antibody after pre-loading with competitor H1M896N).
Protocol: as §2
In the case of B1, the “mAb2 binding response (RU)” value is reported as -4 RU. In the case of B2, the “mAb2 binding response (RU)” value is reported as 47 RU. In the case of B3, the “mAb2 binding response (RU)” value is reported as 50 RU.

The binders below were run against T1, hANGPTL3(17-460)-His (assay: Biacore cross-competition; second antibody after pre-loading with competitor H4H1292P).
Protocol: as §2
For B1, the “mAb2 binding response (RU)” value was 220 RU. In the case of B4, the “mAb2 binding response (RU)” value is reported as 182 RU. In the case of B2, the “mAb2 binding response (RU)” value is reported as -3 RU.
